Assay results reported in IntAct's records for PubMed 15169888.

B1: Nuclear factor NF-kappa-B p105 subunit (Homo sapiens), P19838-1 (parent)
chain: MAEDDPYLGRPEQMFHLDPSLTHTIFNPEVFQPQMALPTDGPYLQILEQPKQRGFRFRYVCEGPSHGGLPGASSEKNKKSYPQVKICNYVGPAKVIVQLVTNGKNIHLHAHSLVGKHCEDGICTVTAGPKDMVVGFANLGILHVTKKKVFETLEARMTEACIRGYNPGLLVHPDLAYLQAEGGGDRQLGDREKELIRQAALQQTKEMDLSVVRLMFTAFLPDSTGSFTRRLEPVVSDAIYDSKAPNASNLKIVRMDRTAGCVTGGEEIYLLCDKVQKDDIQIRFYEEEENGGVWEGFGDFSPTDVHRQFAIVFKTPKYKDINITKPASVFVQLRRKSDLETSEPKPFLYYPEIKDKEEVQRKRQKLMPNFSDSFGGGSGAGAGGGGMFGSGGGGGGTGSTGPGYSFPHYGFPTYGGITFHPGTTKSNAGMKHGTMDTESKKDPEGCDKSDDKNTVNLFGKVIETTEQDQEPSEATVGNGEVTLTYATGTKEESAGVQDNLFLEKAMQLAKRHANALFDYAVTGDVKMLLAVQRHLTAVQDENGDSVLHLAIIHLHSQLVRDLLEVTSGLISDDIINMRNDLYQTPLHLAVITKQEDVVEDLLRAGADLSLLDRLGNSVLHLAAKEGHDKVLSILLKHKKAALLLDHPNGDGLNAIHLAMMSNSLPCLLLLVAAGADVNAQEQKSGRTALHLAVEHDNISLAGCLLLEGDAHVDSTTYDGTTPLHIAAGRGSTRLAALLKAAGADPLVENFEPLYDLDDSWENAGEDEGVVPGTTPLDMATSWQVFDILNGKPYEPEFTSDDLLAQGDMKQLAEDVKLQLYKLLEIPDPDKNWATLAQKLGLGILNNAFRLSPAPSKTLMDNYEVSGGTVRELVEALRQMGYTEAIEVIQAASSPVKTTSQAHSLPLSPASTRQQIDELRDSDSVCDSGVETSFRKLSFTESLTSGASLLTLNKMPHDYGQEGPLEGKI
partner: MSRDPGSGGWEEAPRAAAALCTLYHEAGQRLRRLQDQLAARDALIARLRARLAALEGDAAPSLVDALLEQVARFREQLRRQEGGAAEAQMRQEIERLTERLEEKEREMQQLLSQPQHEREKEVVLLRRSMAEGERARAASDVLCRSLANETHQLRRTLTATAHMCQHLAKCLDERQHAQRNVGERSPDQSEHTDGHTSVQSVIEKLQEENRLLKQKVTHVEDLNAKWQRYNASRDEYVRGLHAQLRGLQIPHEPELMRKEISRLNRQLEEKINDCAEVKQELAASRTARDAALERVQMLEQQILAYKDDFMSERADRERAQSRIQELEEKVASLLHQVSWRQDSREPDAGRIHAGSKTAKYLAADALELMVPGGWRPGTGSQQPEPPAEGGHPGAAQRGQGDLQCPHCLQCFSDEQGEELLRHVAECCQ

Variants of: B1
Conditions: with tnip2_human TNIP2, Q8NFZ5
In the case of L841A, the “effect of a mutation on the interaction” value is reported as “disrupting interaction”.
